From patent publication US20120009171A1 (SHIRE HUMAN GENETIC THERAPIES, published 2012)

Target: the molecule itself
Assay: SEC-HPLC, mobile phase 100 mM sodium citrate pH 5.5 (self-association)
Experimental: Waters HPLC systems were used for size exclusion and reversed phase HPLC analyses. For initial SEC-HPLC analysis, 50 μg of rhASA was injected on to an Agilent Zorbax GF-250 column (4.6 mm×250 mm) and run isocratically at 0.24 mL/min using a mobile phase of 100 mM sodium citrate pH 5.5 (octomer detection) with a detection wavelength of 280 nm. The analyses were repeated using mobile phase conditions of 100 mM sodium citrate, pH 7.0 (dimer detection).
Analysis by size exclusion HPLC detected some degradation for the 2 week thermal stressed sample formulated in 5 mM sodium phosphate with 154 mM NaCl at pH 7.0. The degradation was more evident by SEC-HPLC using a pH 5.5 mobile phase condition which induces association of rhASA to an octamer.

B1: recombinant human arylsulfatase A (rhASA) (enzyme)
chain: RPPNIVLIFADDLGYGDLGCYGHPSSTTPNLDQLAAGGLRFTDFYVPVSLCTPSRAALLTGRLPVRMGMYPGVLVPSSRGGLPLEEVTVAEVLAARGYLTGMAGKWHLGVGPEGAFLPPHQGFHRFLGIPYSHDQGPCQNLTCFPPATPCDGGCDQGLVPIPLLANLSVEAQPPWLPGLEARYMAFAHDLMADAQRQDRPFFLYYASHHTHYPQFSGQSFAERSGRGPFGDSLMELDAAVGTLMTAIGDLGLLEETLVIFTADNGPETMRMSRGGCSGLLRCGKGTTYEGGVREPALAFWPGHIAPGVTHELASSLDLLPTLAALAGAPLPNVTLDGFDLSPLLLGTGKSPRQSLFFYPSYPDEVRGVFAVRTGKYKAHFFTQGSAHSDTTADPACHASSSLTAHEPPLLYDLSKDPGENYNLLGGVAGATPEVLQALKQLQLLKAQLDAAVTFGPSQVARGEDPALQICCHPGCTPRPACCHCPDPHA
notes: By SEC-HPLC it associates to an octamer at pH 5.5 and is seen as a dimer at pH 7.0; also called recombinantly-prepared human arylsulfatase A; human ASA
binding result: binds
